Data: patent US20250074943A1 (Amgen, published 2025)
Bridge positions count the residues as written; N and C are the ends. Primed or numbered codes have the meaning given here. Ends that are not written are not given here. K(PEG4-DBCO-FEA) = Lys whose side chain carries PEG4-DBCO conjugated to fluoroethylazide (FEA); Ttds″ = trioxatridecan-succinamic acid linker

T1: recombinant DLL3 ectodomain (rhDLL3-Fc) (human, UniProt Q9NYJ7 27-492, biotinylated (NHS-LC-LC-biotin) in the BLI and SPR assays)
T1 construct: also called rDLL3-Fc; recombinant human DLL3 (rDLL3); not shown: Fc part
T1 sequence: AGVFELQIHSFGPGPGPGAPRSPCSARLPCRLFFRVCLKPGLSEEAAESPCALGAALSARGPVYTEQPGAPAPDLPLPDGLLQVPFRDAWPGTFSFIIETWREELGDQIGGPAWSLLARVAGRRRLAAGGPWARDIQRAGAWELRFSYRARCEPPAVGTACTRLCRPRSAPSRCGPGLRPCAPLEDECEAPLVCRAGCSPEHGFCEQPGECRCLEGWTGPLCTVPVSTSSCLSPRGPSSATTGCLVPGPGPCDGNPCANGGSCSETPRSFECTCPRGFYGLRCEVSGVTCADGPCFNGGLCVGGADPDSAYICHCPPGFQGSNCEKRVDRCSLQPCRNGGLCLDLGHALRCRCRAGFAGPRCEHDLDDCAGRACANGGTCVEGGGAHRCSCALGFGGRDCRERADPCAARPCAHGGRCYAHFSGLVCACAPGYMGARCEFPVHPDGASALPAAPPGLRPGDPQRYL

T2: human DLL3 expressed on the surface of cells (human, UniProt Q9NYJ7 27-618)
T2 construct: Stably transfected CHO or HEK293 cells; also called huDLL3; hDLL3
T2 sequence: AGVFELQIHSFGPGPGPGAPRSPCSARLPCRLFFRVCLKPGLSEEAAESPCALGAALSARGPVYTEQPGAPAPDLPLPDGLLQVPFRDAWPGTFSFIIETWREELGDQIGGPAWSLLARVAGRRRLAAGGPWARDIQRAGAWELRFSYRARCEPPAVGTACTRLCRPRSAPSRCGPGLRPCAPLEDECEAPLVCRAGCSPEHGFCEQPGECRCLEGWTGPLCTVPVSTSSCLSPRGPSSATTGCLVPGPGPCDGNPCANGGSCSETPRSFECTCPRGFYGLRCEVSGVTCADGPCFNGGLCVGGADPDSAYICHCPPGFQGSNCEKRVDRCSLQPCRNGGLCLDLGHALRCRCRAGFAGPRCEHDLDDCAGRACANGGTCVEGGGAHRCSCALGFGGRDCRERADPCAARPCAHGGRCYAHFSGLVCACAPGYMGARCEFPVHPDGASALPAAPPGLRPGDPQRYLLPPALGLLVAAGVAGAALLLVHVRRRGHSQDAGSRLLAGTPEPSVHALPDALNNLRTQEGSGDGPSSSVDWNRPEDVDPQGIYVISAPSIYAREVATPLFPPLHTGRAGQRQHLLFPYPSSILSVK

B1: PepSP1538 (peptide)
peptide: Ac-AETVEFWWCNGNSENWTCTWGG-{Ttds″-K(PEG4-DBCO-FEA)-NH2}
modifications: disulfide 9-18 (inferred)
notes: also called monomeric Fluoroethylazide (FEA) derivative of PepSP1462
B2: PepSP1583 (peptide)
peptide: Ac-AETVEFWWCNGNSENWTCTWGG-{Ttds″-K(Ttds-Ttds-PEG3)}
modifications: disulfide 9-18 (inferred); not fully specified; printed as [Ac-AETVEFWWCNGNSENWTCTW-GG-Ttds-K(Ttds-Ttds-PEG3)]2-PEG4-DBCO-; also: dimer linked via PEG4-DBCO-FEA
notes: also called dimeric FEA derivative of PepSP1489
B3: PepSP1581 (peptide)
peptide: Ac-AETVEFWWCNGNSENWTCTWGG-{Ttds″-K(PEG3)}
modifications: disulfide 9-18 (inferred); also: dimer linked via PEG4-DBCO-FEA
notes: also called dimeric FEA derivative of PepSP1487
B4: PepSP1582 (peptide)
peptide: Ac-AETVEFWWCNGNSENWTCTWGG-{Ttds″-K(PEG4-PEG3)}
modifications: disulfide 9-18 (inferred); also: dimer linked via PEG4-DBCO-FEA
notes: also called dimeric FEA derivative of PepSP1488

Key:
[1] = target: T1, recombinant DLL3 ectodomain (rhDLL3-Fc); assay: phage ELISA on rDLL3-Fc
Experimental: The pools of phages obtained after each round of selection were tested by Phage-ELISA for their binding to rDLL3-Fc and counter-screened on hIgG-Fc. Briefly, proteins were immobilized on NUNC-Maxisorp ELISA plates. Then the plates were washed and blocked. 100 μl of pre-blocked phages were added to the blocked plate and incubated for 1 hr at room temperature. Anti-M13 HRP conjugated mAb were added and the plates were read on a Multiskan Ascent (Thermo) Elisa reader at A370 nm after the addition of TMB (Sigma).

[2] = target: T2, human DLL3 expressed on the surface of …; assay: phage cell ELISA/FACS on DLL3-expressing cells;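 also: phages incubated 1 h at room temperature with cells overexpressing human DLL3, read by flow cytometry fluorescence, then fixed-cell ELISA with anti-M13-HRP at A370 nm, parental cells alongside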
Experimental: The pools of phages were also screened for their binding to cells overexpressing human DLL3 on their surface. Cells were detached, counted and re-suspended at 1.8×10⁶ cell/ml in FACS buffer containing 2% FBS. Pre-blocked phages were then added to the cells and incubated for 1 hr at room temperature. […] Cells were then washed and re-suspended into FACS buffer. Fluorescence was acquired using a flow cytometer (FACS Canto/Becton Dickinson).
Phage clones with signal higher than four-fold above the background were further tested for their binding to DLL3 on the surface of cells expressing DLL3 by cell ELISA. Briefly, parental cells and cells overexpressing DLL3 were plated on 96 well plate the day before the assay. The cells were then fixed and washed before the addition of pre-blocked phages as previously described. The cells were then washed and anti-M13-HRP was added. The signal was measured using a Multiskan Ascent (Thermo) ELISA reader at A370 nm.

[3] = target: T1, recombinant DLL3 ectodomain (rhDLL3-Fc); assay: SPR (Biacore), biotinylated rhDLL3-Fc on SA chip
[4] = target: T1, recombinant DLL3 ectodomain (rhDLL3-Fc); assay: SPR off-rate, single point (300 nM peptide), biotinylated rhDLL3-Fc on SA chip
Experimental: The off-rate screening of the peptides was done using a Biacore T200 instrument (Cytiva, Sweden). […] Peptides were diluted at 300 nM in PBS-P+1× buffer (Cytiva, Sweden) supplemented with 1% DMSO and 0.1% BSA, then injected over the ligand for five minutes at 30 μl/min, finally dissociation allowed for 1 h. Sensorgrams were analyzed by Biacore T200 Evaluation Software 3.0 (Cytiva, Sweden): specific binding was obtained by subtracting unspecific binding to naked biosensors and a zero analyte concentration made of binding assay buffer (double referencing). Kinetic parameters of koff were measured using a global fitting according to 1:1 Langmuir binding isotherm equation.

Binder | binding result [1] | binding result [2] | other results
AETVEFYGCQYYGWDYTCAW (not shown: M13 pIII coat protein) [SEQ ID NO 60] | binds | binds | 
Ac-AETVEFWWCNGNSENWTCTWGG-{Ttds″-K(Ttds-Ttds-PEG3)} (disulfide 9-18 (inferred); also: dimer linked via PEG4-DBCO, also called PspSP1489) [PepSP1489] |  |  | Kd [3]: 3.3 nM; koff [3]: 0.00037 s⁻¹; kon [3]: 110000 M⁻¹ s⁻¹
B1 |  |  | koff [4]: 0.0039 s⁻¹
AETVEFWGCLGMGYDRTCWW (not fully specified (bridges); cysteine pairing not given here, not shown: M13 pIII coat protein) [SEQ ID NO 64] | binds | binds | 
AETVEFWGCTGGAWEYTCWW (disulfide 9-18 (inferred); not fully specified (C-terminus), not shown: M13 pIII coat protein) [SEQ ID NO 73] | binds | binds | 
AETVEFYNCWYKMGWYVCWS (disulfide 9-18 (inferred); not fully specified (C-terminus), not shown: M13 pIII coat protein) [SEQ ID NO 75] | binds | binds | 
AETVEFYGCWGNYNDYTCSW (not shown: M13 pIII coat protein) [SEQ ID NO 61] | binds | binds | 
AETVEFETCWYLYGREWCVG (not fully specified (bridges); cysteine pairing not given here, not shown: M13 pIII coat protein) [SEQ ID NO 62] | binds | binds | 
B2 |  |  | koff [4]: 3.2e-05 s⁻¹
AETVEFRYCTHTQTYVQCQD (not fully specified (bridges); cysteine pairing not given here, not shown: M13 pIII coat protein) [SEQ ID NO 68] | binds | binds | 
AETVEFYGCYGEQEQWTCLW (not shown: M13 pIII coat protein) [SEQ ID NO 59] | binds | binds | 
AETVEFWGCNLDWYGWTCWW (not fully specified (bridges); cysteine pairing not given here, not shown: M13 pIII coat protein) [SEQ ID NO 69] | binds | binds | 
AETVEFCRAYSNWFYIC (disulfide 7-17 (inferred); not fully specified (C-terminus), not shown: M13 pIII coat protein) [SEQ ID NO 76] | binds | binds | 
Ac-AETVEFWWCNGNSENWTCTWGG-{Ttds-K(PEG4-DBCO)-NH2} (disulfide 9-18 (inferred), also called PspSP1462) [PepSP1462] |  |  | Kd [3]: 6.3 nM; koff [3]: 0.0014 s⁻¹; kon [3]: 230000 M⁻¹ s⁻¹
B3 |  |  | koff [4]: 3.4e-05 s⁻¹
AETVEFWSCQLGSGWWTCAW (not fully specified (bridges); cysteine pairing not given here, not shown: M13 pIII coat protein) [SEQ ID NO 71] | binds | binds | 
AETVEFYGCWWDAYGSTCTW (not fully specified (bridges); cysteine pairing not given here, not shown: M13 pIII coat protein) [SEQ ID NO 66] | binds | binds | 
Ac-AETVEFWWCNGNSENWTCTWGG-{Ttds″-K(PEG3)} (disulfide 9-18 (inferred); also: dimer of two copies, carries PEG4-DBCO, also called PspSP1487) [PepSP1487] |  |  | Kd [3]: 5.5 nM; koff [3]: 0.00042 s⁻¹; kon [3]: 76000 M⁻¹ s⁻¹
Ac-AETVEFWWCNGNSENWTCTWGG-{Ttds″-K(PEG4-PEG3)} (disulfide 9-18 (inferred); also: dimer linked via PEG4-DBCO, also called PspSP1488) [PepSP1488] |  |  | Kd [3]: 2.6 nM; koff [3]: 0.00031 s⁻¹; kon [3]: 120000 M⁻¹ s⁻¹
B4 |  |  | koff [4]: 3.6e-05 s⁻¹
AETVEFMRCYPWWYGPMCVR (not fully specified (bridges); cysteine pairing not given here, not shown: M13 pIII coat protein) [SEQ ID NO 63] | binds | binds | 
AETVEFYGCDLWKGWTVCGY (not fully specified (bridges); cysteine pairing not given here, not shown: M13 pIII coat protein) [SEQ ID NO 67] | binds | binds | 
AETVEFYGCSVNADGWTCSW (not shown: M13 pIII coat protein) [SEQ ID NO 58] | binds | binds | 
AETVEFYGCSVTWGGYTCTW (disulfide 9-18 (inferred); not fully specified (C-terminus), not shown: M13 pIII coat protein) [SEQ ID NO 74] | binds | binds | 
AETVEFWSCVVYGDNWTCSS (not fully specified (bridges); cysteine pairing not given here, not shown: M13 pIII coat protein) [SEQ ID NO 70] | binds | binds | 
AETVEFWTCWTVYGKSSCWD (not fully specified (bridges); cysteine pairing not given here, not shown: M13 pIII coat protein) [SEQ ID NO 65] | binds | binds | 
AETVEFWTCWETTEGYGCNW (not fully specified (bridges); cysteine pairing not given here, not shown: M13 pIII coat protein) [SEQ ID NO 72] | binds | binds | 
